The values below come from paper PMC11182194.

In one assay the target is aflibercept (human). Description: ELISA; pH 5.5; biologic titrated and captured on coated human VEGF165; 1 ug/mL hFcRn-GST added for 1 h at room temperature (100 mM phosphate, 0.15 M NaCl, 4% skimmed milk, 0.05% Tween 20); detected with HRP-conjugated anti-GST. A general note: An ELISA detects its analyte on a solid surface through an enzyme-linked reagent.
The target of another assay is bevacizumab (human). The description is as above.
Chain of bevacizumab (human) (heavy, as listed by the source, chain 1 of 2): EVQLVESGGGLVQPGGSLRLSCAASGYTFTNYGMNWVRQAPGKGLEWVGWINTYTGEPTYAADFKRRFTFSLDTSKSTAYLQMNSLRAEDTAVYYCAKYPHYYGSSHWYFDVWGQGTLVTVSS
Chain of bevacizumab (human) (light, as listed by the source, chain 2 of 2): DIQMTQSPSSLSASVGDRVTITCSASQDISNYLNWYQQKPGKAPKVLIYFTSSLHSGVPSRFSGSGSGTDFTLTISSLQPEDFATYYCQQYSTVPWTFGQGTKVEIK

Chain of recombinant hFcRn-GST (P55899 whole entry, looked up, tested part not stated): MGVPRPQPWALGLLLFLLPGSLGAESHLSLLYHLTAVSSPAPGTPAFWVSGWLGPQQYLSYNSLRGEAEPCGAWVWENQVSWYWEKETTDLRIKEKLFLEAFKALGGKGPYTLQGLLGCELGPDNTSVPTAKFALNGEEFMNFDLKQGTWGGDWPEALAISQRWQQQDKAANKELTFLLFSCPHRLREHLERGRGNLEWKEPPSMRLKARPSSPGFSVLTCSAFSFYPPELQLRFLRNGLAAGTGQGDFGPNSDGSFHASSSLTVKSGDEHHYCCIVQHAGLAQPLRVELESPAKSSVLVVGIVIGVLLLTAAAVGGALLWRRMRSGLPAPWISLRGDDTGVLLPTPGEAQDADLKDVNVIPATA

For “recombinant hFcRn-GST (from UniProt P55899 24-365) (receptor)”, the reduction of absorbance at D30 (capped syringe) against D0-n with aflibercept (human) was found to be 37.5%; in the assay with bevacizumab (human), 18.7%.
